Source: US20210115138A1 (WUXI BIOLOGICS IRELAND, published 2021)

Columns and labels:
[1] = target: T1, human PD-1 on cells (human, UniProt Q15116 25-288); assay: cell-based or functional assay
[2] = target: T2, human LAG-3 on cells (human, UniProt P18627 23-525); assay: cell-based or functional assay
T2 sequence (looked up): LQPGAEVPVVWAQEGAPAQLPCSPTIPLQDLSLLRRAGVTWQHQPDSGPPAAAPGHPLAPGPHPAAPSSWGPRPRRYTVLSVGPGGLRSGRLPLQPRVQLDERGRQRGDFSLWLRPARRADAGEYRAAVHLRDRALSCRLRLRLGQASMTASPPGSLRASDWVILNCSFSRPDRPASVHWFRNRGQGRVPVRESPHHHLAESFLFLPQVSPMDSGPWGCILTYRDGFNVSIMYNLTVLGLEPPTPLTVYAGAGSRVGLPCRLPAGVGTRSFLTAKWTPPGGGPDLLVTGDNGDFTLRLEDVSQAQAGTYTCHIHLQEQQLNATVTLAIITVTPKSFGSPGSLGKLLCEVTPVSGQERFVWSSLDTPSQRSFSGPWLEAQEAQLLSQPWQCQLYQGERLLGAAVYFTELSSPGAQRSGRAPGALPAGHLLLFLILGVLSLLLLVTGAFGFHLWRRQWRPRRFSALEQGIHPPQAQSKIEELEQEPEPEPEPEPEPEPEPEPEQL

[3] = target: T1, human PD-1 on cells; assay: flow cytometry on human PD-1 expressing cells
Procedure: (§1) MFI of the cells was measured by flow cytometry and analyzed by FlowJo (version 7.6.1).

[4] = target: T3, mouse Fc-tagged human PD-1 protein (human, UniProt Q15116 25-170); assay: ELISA; antibody coated, mFc-tagged PD-1 titrated
T3 construct: extracellular domain; also called mouse Fc-tagged PD-1 protein; not shown: mouse Fc tag
T3 sequence (Q15116 25-170): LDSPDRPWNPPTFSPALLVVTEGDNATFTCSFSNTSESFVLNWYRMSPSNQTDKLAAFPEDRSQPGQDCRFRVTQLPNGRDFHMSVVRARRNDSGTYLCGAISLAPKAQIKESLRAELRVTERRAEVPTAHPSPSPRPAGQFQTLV

[5] = target: T4, mouse Fc-tagged human LAG-3 protein (human, UniProt P18627 23-450); assay: ELISA; antibody coated, mFc-tagged LAG-3 titrated
T4 construct: extracellular domain; also called mouse Fc-tagged LAG-3 protein; not shown: mouse Fc tag
T4 sequence (looked up): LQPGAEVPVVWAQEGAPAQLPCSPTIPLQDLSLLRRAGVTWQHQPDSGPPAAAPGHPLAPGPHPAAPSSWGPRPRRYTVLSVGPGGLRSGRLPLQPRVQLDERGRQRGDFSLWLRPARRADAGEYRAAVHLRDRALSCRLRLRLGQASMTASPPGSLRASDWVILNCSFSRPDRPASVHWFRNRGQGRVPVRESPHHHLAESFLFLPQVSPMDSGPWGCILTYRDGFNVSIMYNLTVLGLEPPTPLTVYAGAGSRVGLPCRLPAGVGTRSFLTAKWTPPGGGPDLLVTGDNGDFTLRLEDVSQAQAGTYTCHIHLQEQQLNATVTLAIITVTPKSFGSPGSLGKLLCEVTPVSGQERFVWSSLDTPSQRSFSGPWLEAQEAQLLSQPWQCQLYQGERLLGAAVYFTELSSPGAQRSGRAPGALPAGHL
Procedure: (§2) The plates were then washed and subsequently incubated with HRP-labeled goat anti-mouse IgG antibody for 1 hour. After washing, TMB substrate was added and the color reaction was stopped by 2M HCl. The absorbance at 450 nm was read using a microplate reader.

[6] = target: T2, human LAG-3 on cells; assay: flow cytometry on human LAG-3 expressing 293F cells
Procedure: as §1

[7] = target: T5, cynomolgus PD-1 on cells (cynomolgus, UniProt B0LAJ3 25-288); assay: flow cytometry on cynomolgus PD-1 expressing 293F cells
T5 construct: also called cell surface cynomolgus PD-1
T5 sequence (B0LAJ3 entry or part of it limits assumed): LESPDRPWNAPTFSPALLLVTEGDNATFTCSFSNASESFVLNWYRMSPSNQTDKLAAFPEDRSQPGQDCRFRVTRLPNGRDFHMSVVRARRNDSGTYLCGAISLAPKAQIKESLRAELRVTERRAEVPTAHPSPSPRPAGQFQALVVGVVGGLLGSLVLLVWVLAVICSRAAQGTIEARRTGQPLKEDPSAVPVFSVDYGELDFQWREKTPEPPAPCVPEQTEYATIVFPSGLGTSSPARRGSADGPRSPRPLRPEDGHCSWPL
Procedure: (§3) MFI of the cells was measured by flow cytometry and analyzed by FlowJo.

[8] = target: T6, cynomolgus LAG-3 on cells (cynomolgus); assay: flow cytometry on cynomolgus LAG-3 expressing 293F cells
T6 construct: whole, on cells; also called cell surface cynomolgus LAG-3
Procedure: as §3

[9] = target: T7, His-tagged human PD-1 protein (MW: 40 KD) (human, UniProt Q15116 25-167); assay: SPR Biacore 8K; antibody captured on anti-human Fc, His-PD-1 injected
T7 construct: not shown: His tag
T7 sequence (Q15116 25-167 limits assumed): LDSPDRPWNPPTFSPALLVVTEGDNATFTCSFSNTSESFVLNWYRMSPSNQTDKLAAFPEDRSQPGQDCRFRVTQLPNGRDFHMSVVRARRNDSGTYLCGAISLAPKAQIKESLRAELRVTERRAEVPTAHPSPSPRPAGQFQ
Procedure: Binding affinity of the bispecific antibodies to the antigen were determined by SPR assay using Biacore 8K. PD-1×LAG-3 antibodies were captured on an anti-human IgG Fc antibody immobilized CMS sensor chip (GE).
(§4) The sensorgrams of blank surface and buffer channel were subtracted from the test sensorgrams. The experimental data was fitted by 1:1 model using Langmiur analysis.

[10] = target: T4, mouse Fc-tagged human LAG-3 protein; assay: flow cytometry; blocking of mFc-LAG-3 binding to MHC-II on Raji cells
Procedure: The mixture was transferred into the 96-well plates seeded with Raji cells which express MHC-II on the surface. […] The MFI was evaluated by flow cytometry and analyzed by the software FlowJo.

[11] = target: T1, human PD-1 on cells; assay: flow cytometry; competition with mFc-PD-L1 on PD-1 expressing CHO-S cells
Procedure: The mixture was transferred into the 96-well plates seeded with PD-1 expressing CHO-S cells. […] The MFI was evaluated by flow cytometry and analyzed by the software FlowJo.

[12] = target: T8, Human LAG-3 without tag (human, UniProt P18627 23-450); assay: SPR; antibody immobilized, untagged human LAG-3 injected, single-cycle kinetics
T8 construct: extracellular domain; also called untagged LAG-3 ECD protein
T8 sequence (looked up): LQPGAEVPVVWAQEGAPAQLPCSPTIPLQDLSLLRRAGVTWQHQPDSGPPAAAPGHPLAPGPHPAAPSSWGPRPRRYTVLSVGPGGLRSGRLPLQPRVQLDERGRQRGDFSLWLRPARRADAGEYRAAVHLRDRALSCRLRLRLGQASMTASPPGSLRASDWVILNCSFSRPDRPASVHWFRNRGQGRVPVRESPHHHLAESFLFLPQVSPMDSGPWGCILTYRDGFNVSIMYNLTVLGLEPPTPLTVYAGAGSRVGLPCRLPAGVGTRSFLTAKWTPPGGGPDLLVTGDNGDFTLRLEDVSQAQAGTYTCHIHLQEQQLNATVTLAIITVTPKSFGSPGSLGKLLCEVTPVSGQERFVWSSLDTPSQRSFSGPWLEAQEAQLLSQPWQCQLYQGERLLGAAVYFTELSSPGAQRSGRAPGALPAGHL
Procedure: The chip was regenerated with 10 mM glycine (pH 1.5).
as §4

[13] = target: human CD4 protein (human, UniProt P01730 26-390, limits assumed); assay: ELISA, human CD4 coated at 1 ug/mL, antibody added at 0.67 and 6.7 nM, OD450
Procedure: (§5) Cross-reactivity to human CD4, CTLA-4 or CD28 was measured by ELISA. Plates were coated with human CD4, CTLA-4 or CD28 at 1 μg/mL overnight at 4° C. […] The plates were then washed and subsequently incubated with corresponding secondary antibody for 60 min. After washing, TMB substrate was added and the color reaction was stopped by 2M HCl.

[14] = target: T9, human CD28 protein (human, UniProt P10747 19-152); assay: ELISA, human CD28 coated at 1 ug/mL, antibody added at 0.67 and 6.7 nM, OD450
T9 construct: extracellular domain
Procedure: as §5

[15] = target: T10, human CTLA-4 protein (human, UniProt P16410 36-161); assay: ELISA, human CTLA-4 coated at 1 ug/mL, antibody added at 0.67 and 6.7 nM, OD450
T10 construct: extracellular domain
T10 sequence (P16410 36-161): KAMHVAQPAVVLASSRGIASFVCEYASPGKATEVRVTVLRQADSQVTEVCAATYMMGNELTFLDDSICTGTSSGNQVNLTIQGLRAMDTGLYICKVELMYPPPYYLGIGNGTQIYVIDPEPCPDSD
Procedure: as §5

[16] = target: T11, mouse PD-1 protein (mouse, UniProt Q02242 25-167, limits assumed); assay: ELISA, antibody coated on the plate, mouse PD-1 (His tag on the sheet) added at 0.25, 2.5 and 25 nM, OD450
T11 sequence (looked up): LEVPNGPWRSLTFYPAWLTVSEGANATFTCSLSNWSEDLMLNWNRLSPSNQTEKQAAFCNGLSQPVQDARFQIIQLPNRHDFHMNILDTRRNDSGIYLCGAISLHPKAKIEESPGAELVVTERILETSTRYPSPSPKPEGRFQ
Procedure: as §2, with “After blocking and washing, various concentrations of mouse PD-1 protein were added to the plates and incubated at room temperature for 1 hour. The plates” for “The plates”

[17] = target: T3, mouse Fc-tagged human PD-1 protein; assay: dual-binding ELISA; mFc-PD-1 coated, antibody titrated, detected by His-tagged LAG-3 and anti-His-HRP; dual binding: PD-1 and LAG-3 protein together

T1 sequence (Q15116 25-288): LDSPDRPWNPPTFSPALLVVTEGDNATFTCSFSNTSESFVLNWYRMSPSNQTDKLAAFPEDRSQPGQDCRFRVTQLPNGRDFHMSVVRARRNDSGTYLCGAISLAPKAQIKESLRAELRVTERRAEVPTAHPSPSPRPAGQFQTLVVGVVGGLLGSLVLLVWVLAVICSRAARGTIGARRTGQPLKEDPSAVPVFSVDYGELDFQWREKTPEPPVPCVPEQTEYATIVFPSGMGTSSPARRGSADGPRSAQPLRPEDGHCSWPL

- EC50 of NFAT pathways enhancement (luciferase reporter) [1]: 0.4 nM
- EC50 of IL-2 pathways enhancement (luciferase reporter) [2]: 0.92 nM
- EC50 [3]: 1.32 nM
- EC50 [4]: 0.07 nM
- EC50 [5]: 0.27 nM
- EC50 [6]: 2.57 nM
- EC50 [7]: 0.38 nM
- EC50 [8]: 6.5 nM
- Kd [9]: 2.46 nM
- koff [9]: 0.000695 s⁻¹
- kon [9]: 283000 M⁻¹ s⁻¹
- IC50 [10]: 2.2 nM
- IC50 [11]: 1.01 nM
- Kd [12]: < 0.0261 nM
- koff [12]: < 1e-05 s⁻¹
- kon [12]: 383000 M⁻¹ s⁻¹
- binding result [13]: no binding (tested: 6.7 nM)
- binding result [14]: no binding (tested: 6.7 nM)
- binding result [15]: no binding (tested: 6.7 nM)
- binding result [16]: no binding (tested: 25 nM (mouse PD-1))
- EC50 [17]: 0.04 nM
B1: W365-U6T1.G14-1.uIgG4.SP (bispecific antibody)
heavy: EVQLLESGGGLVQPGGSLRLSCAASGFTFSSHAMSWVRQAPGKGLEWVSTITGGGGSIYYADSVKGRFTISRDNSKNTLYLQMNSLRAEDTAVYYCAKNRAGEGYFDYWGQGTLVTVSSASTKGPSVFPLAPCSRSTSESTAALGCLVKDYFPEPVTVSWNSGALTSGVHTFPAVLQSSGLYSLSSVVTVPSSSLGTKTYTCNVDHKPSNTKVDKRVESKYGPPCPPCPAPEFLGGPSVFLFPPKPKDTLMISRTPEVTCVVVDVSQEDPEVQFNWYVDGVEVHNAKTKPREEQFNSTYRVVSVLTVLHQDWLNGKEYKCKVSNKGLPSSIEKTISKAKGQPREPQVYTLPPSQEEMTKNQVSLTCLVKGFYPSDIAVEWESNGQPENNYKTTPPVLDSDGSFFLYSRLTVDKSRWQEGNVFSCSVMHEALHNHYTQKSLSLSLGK
light: SYELTQPLSVSVALGQTARITCGGDNIGNKDVHWYQQKPGQAPVLVIYRDSNRPSGIPEGFSGSNSGNTATLTISRAQAGDEADYYCQVWDSIWVFGGGTKLTVLGQPKAAPSVTLFPPSSEELQANKATLVCLISDFYPGAVTVAWKADSSPVKAGVETTTPSKQSNNKYAASSYLSLTPEQWKSHKSYSCQVTHEGSTVEKTVAPTECSGGGGSGGGGSQLQLQESGPGLVKPSETLSLTCTVSGDSISSTSYYWGWIRQPPGKGLEWIGSFYYSGSTYYNPSLKSRVTISVDTSKNQFSLKLNSVTAADTAVYYCARMQLWSYDVDVWGQGTTVTVSSGGGGSGGGGSGGGGSQSALTQPASVSGSPGQSITISCTGTSSDVGGYDYVAWYQQHPGKVPKLMIYDVSERPSGVSNRFSGSKSGNTASLTISGLQAEDEADYYCSSYTSTTTLVVFGGGTKLSVL
notes: Anti-PD-1 (W3055-1.153.7) human IgG4 S228P; also called W365-G14; W365G-14
